In the assay the target is T1, purified α4β1 VLA4 integrin (UniProt P13612 34-1032; P05556 21-798).
T1 construct: Purified VLA4 coated on the plate at 1 ug/ml; also called α4β1 integrin
Description: ELISA, Fab on plate-coated purified VLA4, goat anti-human IgG HRP detection. The method, then: In this assay, 1 ug/ml of purified VLA4 (in 50 mM NaHCO₃ buffer (pH 9.2) containing 10 ug/ml BSA) was coated on a 96-well (100 ul/well) Corning Easy-wash plate and incubated overnight at 4° C. Following incubation, the plate was blocked with 150 ul/well of blocking buffer (50 mM Tris-HCl pH7.5, 150 mM NaCl and 2% Dry Milk) for 60 minutes at room temperature. The plated was then washed four times with TBS Washing buffer (50 mM Tris-HCl pH 7.5, 150 mM NaCl, 0.05% Tween-20). Dilutions of each HP1/2 Fab to be tested were prepared in binding buffer (TBS buffer containing 2% Dry Milk) and 100 ul of each dilution was added to the designated wells (100 ul of TBS assay buffer was used as blank control). The plate was then incubated for 60 minutes at room temperature, and then washed four times with TBS Washing buffer. The detection antibody (goat anti-human IgG HRP conjugate) was added at 100 ul/well and the plated was again incubated at room temperature for 60 minutes and washed four times with TBS Washing buffer beforeadding 100 ul/well HRP Substrate buffer and incubating another 30-60 minutes. To stop the reaction, 100 ul of 1 NH2SO4 was added to each well. The plate was read in a Molecular Devices ELISA plate reader at […], and the data was analyzed using Softmax software and EC50 values calculated by GraphPad Prism 4. The EC50 values observed for the test Fab fragments with VH and VL domains are tabulated in […]

T1 sequence (P13612 34-1032, form in doubt, chain 1 of 2): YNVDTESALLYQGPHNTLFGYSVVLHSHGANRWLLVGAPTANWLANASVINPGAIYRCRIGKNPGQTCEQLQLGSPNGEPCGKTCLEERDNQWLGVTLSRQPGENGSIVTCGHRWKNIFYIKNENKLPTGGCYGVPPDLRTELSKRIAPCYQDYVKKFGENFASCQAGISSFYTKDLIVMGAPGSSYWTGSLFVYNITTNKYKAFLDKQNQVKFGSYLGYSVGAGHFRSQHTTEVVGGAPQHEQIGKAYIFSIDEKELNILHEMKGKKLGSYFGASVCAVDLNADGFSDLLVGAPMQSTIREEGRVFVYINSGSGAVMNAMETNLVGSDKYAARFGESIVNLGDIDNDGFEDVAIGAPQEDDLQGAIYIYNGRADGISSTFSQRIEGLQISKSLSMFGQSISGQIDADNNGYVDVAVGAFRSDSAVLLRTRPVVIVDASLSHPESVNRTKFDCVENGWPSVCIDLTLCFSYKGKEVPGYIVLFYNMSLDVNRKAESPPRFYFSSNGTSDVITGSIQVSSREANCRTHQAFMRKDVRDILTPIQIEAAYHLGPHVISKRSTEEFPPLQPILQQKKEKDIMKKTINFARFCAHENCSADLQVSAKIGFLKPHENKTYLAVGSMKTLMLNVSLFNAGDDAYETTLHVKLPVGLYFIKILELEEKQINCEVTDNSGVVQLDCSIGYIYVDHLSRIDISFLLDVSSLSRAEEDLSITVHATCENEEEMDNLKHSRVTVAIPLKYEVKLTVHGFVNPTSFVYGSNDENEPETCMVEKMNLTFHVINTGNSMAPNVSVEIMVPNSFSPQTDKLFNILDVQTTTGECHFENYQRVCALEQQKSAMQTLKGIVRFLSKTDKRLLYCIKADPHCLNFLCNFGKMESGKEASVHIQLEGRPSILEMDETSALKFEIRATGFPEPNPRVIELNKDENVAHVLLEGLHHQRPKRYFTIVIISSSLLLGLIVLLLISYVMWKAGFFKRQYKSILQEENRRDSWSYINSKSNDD
T1 sequence (P05556 21-798, form in doubt, chain 2 of 2): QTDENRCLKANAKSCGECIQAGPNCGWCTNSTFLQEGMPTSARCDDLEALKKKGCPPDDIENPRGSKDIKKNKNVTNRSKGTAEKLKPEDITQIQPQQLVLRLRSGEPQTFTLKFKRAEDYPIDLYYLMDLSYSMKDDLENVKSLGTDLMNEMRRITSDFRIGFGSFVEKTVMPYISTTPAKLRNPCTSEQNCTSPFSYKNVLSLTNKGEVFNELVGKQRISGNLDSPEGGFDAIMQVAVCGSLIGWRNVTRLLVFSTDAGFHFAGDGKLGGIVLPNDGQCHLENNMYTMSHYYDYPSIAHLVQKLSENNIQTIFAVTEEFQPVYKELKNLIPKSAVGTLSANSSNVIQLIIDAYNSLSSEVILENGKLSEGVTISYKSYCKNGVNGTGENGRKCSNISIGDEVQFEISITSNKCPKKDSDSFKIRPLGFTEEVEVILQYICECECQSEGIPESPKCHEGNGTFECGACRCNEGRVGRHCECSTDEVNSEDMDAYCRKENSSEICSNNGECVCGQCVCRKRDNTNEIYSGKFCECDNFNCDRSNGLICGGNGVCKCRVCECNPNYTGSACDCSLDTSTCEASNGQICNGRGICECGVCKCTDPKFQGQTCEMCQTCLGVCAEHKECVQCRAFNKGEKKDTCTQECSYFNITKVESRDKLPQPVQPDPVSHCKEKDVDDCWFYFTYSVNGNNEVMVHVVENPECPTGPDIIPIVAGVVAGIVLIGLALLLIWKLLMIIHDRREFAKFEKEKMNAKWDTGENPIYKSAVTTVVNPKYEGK

B1: Humanized HP1/2 Fab V24A_T32V (Fab, V domains shown)
VH: EVQLVQSGAEVKKPGATVKISCKASGFNIKDVYMHWVQQAPGKGLEWMGRIDPASGDTKYDPKFQVRVTITADTSTDTAYMELSSLRSEDTAVYYCATGMWVSTGYALDFWGQGTLVTVSS
VL: DIVMTQSPDSLAVSLGERATINCKASQSVTNDVAWYQQKPGQPPKLLIYYASNRYTGVPDRFSGSGSGTDFTLTISSLQAEDVAVYYCQQDYSSPYTFGQGTKVEIK
notes: Fab fragment; Constant parts are not specified
Consider B1, for which the EC50 (as a rule, the concentration that produces a half-maximal response) came out at 0.066 nM.

B2: Humanized HP1/2 Fab V24S_F27Y_T32V (Fab, V domains shown)
VH: EVQLVQSGAEVKKPGATVKISCKSSGYNIKDVYMHWVQQAPGKGLEWMGRIDPASGDTKYDPKFQVRVTITADTSTDTAYMELSSLRSEDTAVYYCATGMWVSTGYALDFWGQGTLVTVSS
VL: DIVMTQSPDSLAVSLGERATINCKASQSVTNDVAWYQQKPGQPPKLLIYYASNRYTGVPDRFSGSGSGTDFTLTISSLQAEDVAVYYCQQDYSSPYTFGQGTKVEIK
notes: as for B1
B2 showed an EC50 of 0.032 nM.

B3: Humanized HP1/2 Fab F27Y_T32V_M96L (VH SEQ ID NO: 25) (Fab, V domains shown)
VH: EVQLVQSGAEVKKPGATVKISCKVSGKNIKDVYMHWVQQAPGKGLEWMGRIDPASGDTKYDPKFQVRVTITADTSTDTAYMELSSLRSEDTAVYYCATGLWVSTGYALDFWGQGTLVTVSS
VL: DIVMTQSPDSLAVSLGERATINCKASQSVTNDVAWYQQKPGQPPKLLIYYASNRYTGVPDRFSGSGSGTDFTLTISSLQAEDVAVYYCQQDYSSPYTFGQGTKVEIK
notes: as for B1
As for B3, the EC50 was found to be 0.14 nM.

B4: HP1/2 Fab, straight CDR graft (VH CDR graft paired with VL CDR graft) (Fab, V domains shown)
VH: EVQLVQSGAEVKKPGATVKISCKVSGFNIKDTYMHWVQQAPGKGLEWMGRIDPASGDTKYDPKFQVRVTITADTSTDTAYMELSSLRSEDTAVYYCATGMWVSTGYALDFWGQGTLVTVSS
VL: DIVMTQSPDSLAVSLGERATINCKASQSVTNDVAWYQQKPGQPPKLLIYYASNRYTGVPDRFSGSGSGTDFTLTISSLQAEDVAVYYCQQDYSSPYTFGQGTKVEIK
notes: as for B1
Turning to B4, the EC50 came to 1.1 nM.

B5: Humanized HP1/2 Fab V24F_T32V (Fab, V domains shown)
VH: EVQLVQSGAEVKKPGATVKISCKFSGFNIKDVYMHWVQQAPGKGLEWMGRIDPASGDTKYDPKFQVRVTITADTSTDTAYMELSSLRSEDTAVYYCATGMWVSTGYALDFWGQGTLVTVSS
VL: DIVMTQSPDSLAVSLGERATINCKASQSVTNDVAWYQQKPGQPPKLLIYYASNRYTGVPDRFSGSGSGTDFTLTISSLQAEDVAVYYCQQDYSSPYTFGQGTKVEIK
notes: as for B1
Take B5: the EC50 stood at 0.13 nM.

B6: Chimeric HP1/2 Fab (murine VH and VL domains) (Fab, V domains shown)
VH: EVQLQQSGAELVKPGASVKLSCTASGFNIKDTYMHWVKQRPEQGLEWIGRIDPASGDTKYDPKFQVKATITADTSSNTAWLQLSSLTSEDTAVYYCADGMWVSTGYALDFWGQGTTVTVSS
VL: SIVMTQTPKFLLVSAGDRVTITCKASQSVTNDVAWYQQKPGQSPKLLIYYASNRYTGVPDRFTGSGYGTDFTFTISTVQAEDLAVYFCQQDYSSPYTFGGGTKLEIK
notes: Fab fragment; Constant parts (CH1, CL) are not specified; detection was with goat anti-human IgG HRP conjugate; also called chimeric Fab
On to B6, for which the EC50 was 0.052 nM.

(Values after patent publication US20100093980A1 (Biogen, published 2010).)
